Values of other authors, collected in article PMC3763834.
“And” between values parts separate entries of the source, which are not always exact repeats. Identical values can stand only once.

Target: PKA catalytic subunit (UniProt P17612)

- Kd: 1 nM and 0.1 nM
Substance: PKA RII subunit (from UniProt P13861)
